Our source for the ECL signal values is patent US20120058906A1 (published 2012).

Experiment [1] has as its target T1, rHuman ErbB2/Fc Chimera, CF (R&D Systems Cat#1129-ER) (human, UniProt P04626 23-652).
T1 construct: Bought protein; also called HER2/neu; human epidermal growth factor 2 receptor; Fc part of the bought chimera not given
The experiment in a line: MSD ECL multi-spot assay, antigen spotted on plate, Fab 1.57 uM; blank spot 797.

Experiment [2] concerns the target T2, rHuman Erythropoietin R/Fc Chimera, CF (R&D Systems Cat#963-ER) (human, UniProt P19235 25-250).
T2 construct: Bought protein; also called EPOR; EPO R/Fc; Fc part of the bought chimera not given
T2 sequence: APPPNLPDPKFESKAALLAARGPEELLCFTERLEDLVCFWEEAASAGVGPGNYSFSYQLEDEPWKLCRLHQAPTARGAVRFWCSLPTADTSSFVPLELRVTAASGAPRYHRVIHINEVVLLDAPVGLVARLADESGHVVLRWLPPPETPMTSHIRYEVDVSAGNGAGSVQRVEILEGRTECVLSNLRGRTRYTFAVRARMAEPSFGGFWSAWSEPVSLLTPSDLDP
The description is as above.

Experiment [3] deals with T3, rHuman IGF-1 sR (IGF-1 sR), CF (R&D Systems Cat#391-GR) (human, UniProt P08069 31-932).
T3 construct: Bought soluble receptor; also called insulin-like growth factor-1 soluble receptor; IGF-R1
Described as above.

Experiment [4] addresses T4, rHuman Notch-1/Fc Chimera, CF (R&D Systems Cat#3647-TK) (human, UniProt P46531 19-526).
T4 construct: Bought protein; Fc part of the bought chimera not given
The description is as above.

In experiment [5] the target is T5, Recombinant Human DLL4 (R&D Systems Cat#1506-D4/CF) (human, UniProt Q9NR61 27-524).
T5 construct: Bought protein; also called delta-like protein 4; rHuman DLL4
The description is as above.

Experiment [6] addresses T6, rHuman HGF R/c-MET/Fc Chimera, CF (R&D Systems Cat#358-MT/CF) (human, UniProt P08581 25-932).
T6 construct: Bought protein; also called HGF R/Fc; hepatocyte growth factor receptor; Fc part of the bought chimera not given
The experiment is described as above.

The target of experiment [7] is T7, rHuman CD44/Fc Chimera, CF (R&D Systems Cat#3660-CD) (human, UniProt P16070 21-220).
T7 construct: Bought protein; Fc part of the bought chimera not given
The description is as above.

For experiment [8], the target named is T1, rHuman ErbB2/Fc Chimera, CF (R&D …). Description: MSD ECL multi-spot assay, antigen spotted on plate, Fab 0.93 uM; blank spot 859.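 Further: blank spot per well as comparator with Hit at signal to blank ratio of 4 or more.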
Experiment [9] has as its target T2, rHuman Erythropoietin R/Fc Chimera, CF …. The description is as above.
Experiment [10] addresses T3, rHuman IGF-1 sR (IGF-1 sR), CF (R&D …). Described as above.
Experiment [11] has as its target T8, rHuman P-Cadherin/Fc Chimera, CF (R&D Systems Cat#861-PC) (human, UniProt P22223 108-654).
T8 construct: Bought protein; also called CDH3; Fc part of the bought chimera not given
The experiment is described as above.

Experiment [12] concerns the target T4, rHuman Notch-1/Fc Chimera, CF (R&D …). The description is as above.
In experiment [13] the target is T5, Recombinant Human DLL4 (R&D Systems …). The experiment is described as above.
Experiment [14] addresses T7, rHuman CD44/Fc Chimera, CF (R&D Systems …). Described as above.
In experiment [15] the target is T9, rHuman ErbB2/Fc Chimera, CF (R&D Systems Cat#1129-ER) (human, UniProt P04626 23-652).
T9 construct: Bought protein; also called HER2/neu; human epidermal growth factor 2 receptor; not shown: Fc of the bought chimera
Description: ECL (MSD multi-spot) titration, Fab at 360 nM; blank spot 462.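 Further: blank spot per well as comparator with Hit at signal to blank ratio of 4 or more.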

The target of experiment [16] is T10, rHuman P-Cadherin/Fc Chimera, CF (R&D Systems Cat#861-PC) (human, UniProt P22223 108-654).
T10 construct: Bought protein; not shown: Fc of the bought chimera
The experiment is described as above.

Experiment [17] has as its target T11, rHuman Erythropoietin R/Fc Chimera, CF (R&D Systems Cat#963-ER) (human, UniProt P19235 25-250).
T11 construct: Bought protein; also called EPO R/Fc; EPOR; not shown: Fc of the bought chimera
T11 sequence: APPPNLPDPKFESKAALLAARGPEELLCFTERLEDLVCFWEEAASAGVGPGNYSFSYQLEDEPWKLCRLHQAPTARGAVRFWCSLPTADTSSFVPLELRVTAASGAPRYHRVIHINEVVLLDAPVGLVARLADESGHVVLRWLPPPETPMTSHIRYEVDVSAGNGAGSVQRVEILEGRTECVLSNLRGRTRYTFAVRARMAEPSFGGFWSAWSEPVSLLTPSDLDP
The experiment is described as above.

For experiment [18], the target named is T12, rHuman CD44/Fc Chimera, CF (R&D Systems Cat#3660-CD) (human, UniProt P16070 21-220).
T12 construct: Bought protein; not shown: Fc of the bought chimera
The description is as above.

For experiment [19], the target named is T13, rHuman IGF-1 sR, CF (R&D Systems Cat#391-GR) (human, UniProt P08069 31-932).
T13 construct: Bought soluble receptor; also called insulin-like growth factor-1 soluble receptor; IGF-R1
Described as above.

In experiment [20] the target is T14, rHuman HGF R/c-MET/Fc Chimera, CF (R&D Systems Cat#358-MT/CF) (human, UniProt P08581 25-932).
T14 construct: Bought protein; also called HGF R/Fc; hepatocyte growth factor receptor; not shown: Fc of the bought chimera
The description is as above.

The target of experiment [21] is T9, rHuman ErbB2/Fc Chimera, CF (R&D …). The experiment in a line: ECL (MSD multi-spot) titration, Fab at 36 nM; blank spot 413.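 Further: blank spot per well as comparator with Hit at signal to blank ratio of 4 or more.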
Experiment [22] deals with T10, rHuman P-Cadherin/Fc Chimera, CF (R&D …). The description is as above.
Experiment [23] addresses T11, rHuman Erythropoietin R/Fc Chimera, CF …. The description is as above.
Experiment [24] concerns the target T12, rHuman CD44/Fc Chimera, CF (R&D Systems …). The experiment is described as above.
In experiment [25] the target is T13, rHuman IGF-1 sR, CF (R&D Systems …). The experiment is described as above.
Experiment [26] addresses T14, rHuman HGF R/c-MET/Fc Chimera, CF (R&D …). The experiment is described as above.

B1: Fab VH1-46_IGHD3-10*01_IGHJ4*01 & O1_IGKJ1*01 (Fab, V domains shown)
VH: QVQLVQSGAEVKKPGASVKVSCKASGYTFTSYYMHWVRQAPGQGLEWMGIINPSGGSTSYAQKFQGRVTMTRDTSTSTVYMELSSLRSEDTAVYYCAREYYYGSGSYYNDYFDYWGQGTLVTVSS
VL: DIVMTQTPLSLPVTPGEPASISCRSSQSLLDSDDGNTYLDWYLQKPGQSPQLLIYTLSYRASGVPDRFSGSGSGTDFTLKISRVEAEDVGVYYCMQRIEFPSWTFGQGTKVEIK
notes: Fab from E. coli; VH joined to the CH1 (Flag and His tags) of Plasmid A, VL to the kappa CL of Plasmid C
On to B1, for which the ECL signal in experiment [1] is 904; in experiment [2], 6390; in [3], 985; in experiment [4], 1260; in experiment [5], 1500; in [6] it was 1040. In experiment [7], this molecule came in with an ECL signal of 836.

B2: Fab VH1-46_IGHD6-13*01_IGHJ4*01 & O1_IGKJ1*01 (Fab, V domains shown)
VH: QVQLVQSGAEVKKPGASVKVSCKASGYTFTSYYMHWVRQAPGQGLEWMGIINPSGGSTSYAQKFQGRVTMTRDTSTSTVYMELSSLRSEDTAVYYCAREGYSSSWYDYFDYWGQGTLVTVSS
VL: DIVMTQTPLSLPVTPGEPASISCRSSQSLLDSDDGNTYLDWYLQKPGQSPQLLIYTLSYRASGVPDRFSGSGSGTDFTLKISRVEAEDVGVYYCMQRIEFPSWTFGQGTKVEIK
notes: as for B1
B2: the ECL signal was found to be 1610 in [8]; 4240 in experiment [9]; 1790 in [10]; 2420 in [11]; 1920 in [12]; 9630 in experiment [13]. Further, in experiment [14], the ECL signal is 1450.

B3: Fab VH4-28_IGHD7-27*01_IGHJ1*01 & L2_IGKJ1*01 (Fab, V domains shown)
VH: QVQLQESGPGLVKPSDTLSLTCAVSGYSISSSNWWGWIRQPPGKGLEWIGYIYYSGSTYYNPSLKSRVTMSVDTSKNQFSLKLSSVTAVDTAVYYCARTNWGAEYFQHWGQGTLVTVSS
VL: not shown
notes: also called Fab No. 1
Regarding B3, the ECL signal in [15] was 647; in experiment [16], 636; in [17], 4720; in experiment [18], 740; in [19], 535; in experiment [20], 581. Besides, the ECL signal in experiment [21] came to 600; in [22], 693; in experiment [23] it was 2980; in experiment [24] it was 679; in experiment [25], 486; in experiment [26], 613.
